In patent US20110195900A1, “PEPTIDIC PTH RECEPTOR AGONISTS” (FERRING B.V., priority 2008, published 2011):
Starred links: 1 amine or outer side, 2 acyl side, 3 side chain; linkers in the order of their positions; H or OH if unused. Non-standard residues stand in square brackets, D forms with d. No end group written: not given here. hSer(OMe) = COCC[C@H](N[*:1])C(=O)[*:2]; 1Nal = N[C@@H](Cc1cccc2ccccc12)C(=O)O; 2Nal = N[C@@H](Cc1ccc2ccccc2c1)C(=O)O; β3hI = CC[C@H](C)[C@H](N)CC(=O)O; β3hE = N[C@@H](CCC(=O)O)CC(=O)O; Nle = CCCC[C@H](N)C(=O)O; β3hA = C[C@H](N)CC(=O)O; Aib = CC(C)(N)C(=O)O; βAla = NCCC(=O)O

B1: [Nle^8, β-hIle^18, 1-Nal^23, Leu^27, Glu^33] hPTH (1-34)-NH2 (peptide)
peptide: SVSEIQL[Nle]HNLGKHLNS[β3hI]ERVE[1Nal]LRKLLQDVHEF-NH2
B2: [hSer(OMe)^8,18, β-Ala^17, 1-Nal^23, Leu^27] hPTH(1-34)-NH2 (peptide)
peptide: SVSEIQL[hSer(OMe)]HNLGKHLN[βAla][hSer(OMe)]ERVE[1Nal]LRKLLQDVHNF-NH2
B3: [Aib^1, Nle^8, β-Ala^17, hSer(OMe)^18, 1-Nal^23, Leu^27] hPTH (1-34)-NH2 (peptide)
peptide: [Aib]VSEIQL[Nle]HNLGKHLN[βAla][hSer(OMe)]ERVE[1Nal]LRKLLQDVHNF-NH2
B4: [Nle^8, Glu^10, β-hIle^18, 1-Nal^23, Leu^27] hPTH (1-34)-NH2 (peptide)
peptide: SVSEIQL[Nle]HELGKHLNS[β3hI]ERVE[1Nal]LRKLLQDVHNF-NH2
B5: [Nle^8, β-hAla^18, 1-Nal^23, Leu^27] hPTH (1-34)-NH2 (peptide)
peptide: SVSEIQL[Nle]HNLGKHLNS[β3hA]ERVE[1Nal]LRKLLQDVHNF-NH2
B6: [Nle^8, Aib^12, β-hIle^18, 1-Nal^23, Leu^27] hPTH (1-34)-NH2 (peptide)
peptide: SVSEIQL[Nle]HNL[Aib]KHLNS[β3hI]ERVE[1Nal]LRKLLQDVHNF-NH2
B7: [Nle^8,18, β-Ala^17, 1-Nal^23, Leu^27] hPTH (1-34)-NH2 (peptide)
peptide: SVSEIQL[Nle]HNLGKHLN[βAla][Nle]ERVE[1Nal]LRKLLQDVHNF-NH2
B8: [Nle^8, β-hIle^18, 1-Nal^23, Leu^27, His^30] hPTH (1-34)-NH2 (peptide)
peptide: SVSEIQL[Nle]HNLGKHLNS[β3hI]ERVE[1Nal]LRKLLQHVHNF-NH2
B9: [Nle^8, Ser^16, β-hIle^18, 1-Nal^23, Leu^27] hPTH (1-34)-NH2 (peptide)
peptide: SVSEIQL[Nle]HNLGKHLSS[β3hI]ERVE[1Nal]LRKLLQDVHNF-NH2
B10: [Ala^1, Nle^8,18, β-Ala^17, 2-Nal^23] hPTH (1-34)-NH2 (peptide)
peptide: AVSEIQL[Nle]HNLGKHLN[βAla][Nle]ERVE[2Nal]LRKKLQDVHNF-NH2
modifications: N-terminus assumed
SMILES: CCCC[C@H](NC(=O)CCNC(=O)[C@H](CC(N)=O)NC(=O)[C@H](CC(C)C)NC(=O)[C@H](Cc1c[nH]cn1)NC(=O)[C@H](CCCCN)NC(=O)CNC(=O)[C@H](CC(C)C)NC(=O)[C@H](CC(N)=O)NC(=O)[C@H](Cc1c[nH]cn1)NC(=O)[C@H](CCCC)NC(=O)[C@H](CC(C)C)NC(=O)[C@H](CCC(N)=O)NC(=O)[C@@H](NC(=O)[C@H](CCC(=O)O)NC(=O)[C@H](CO)NC(=O)[C@@H](NC(=O)[C@H](C)N)C(C)C)[C@@H](C)CC)C(=O)N[C@@H](CCC(=O)O)C(=O)N[C@@H](CCCNC(=N)N)C(=O)N[C@H](C(=O)N[C@@H](CCC(=O)O)C(=O)N[C@@H](Cc1ccc2ccccc2c1)C(=O)N[C@@H](CC(C)C)C(=O)N[C@@H](CCCNC(=N)N)C(=O)N[C@@H](CCCCN)C(=O)N[C@@H](CCCCN)C(=O)N[C@@H](CC(C)C)C(=O)N[C@@H](CCC(N)=O)C(=O)N[C@@H](CC(=O)O)C(=O)N[C@H](C(=O)N[C@@H](Cc1c[nH]cn1)C(=O)N[C@@H](CC(N)=O)C(=O)N[C@@H](Cc1ccccc1)C(N)=O)C(C)C)C(C)C
B11: [Ala^1, Nle^8,18, β-Ala^17, 1-Nal^23, Leu^27] hPTH (1-34)-NH2 (peptide)
peptide: AVSEIQL[Nle]HNLGKHLN[βAla][Nle]ERVE[1Nal]LRKLLQDVHNF-NH2
B12: [Nle^8, Glu^16, β-hIle^18, 1-Nal^23, Leu^27] hPTH (1-34)-NH2 (peptide)
peptide: SVSEIQL[Nle]HNLGKHLES[β3hI]ERVE[1Nal]LRKLLQDVHNF-NH2
B13: [Nle^8, β-hIle^18, 1-Nal^23, Leu^27, Ser^30] hPTH (1-34)-NH2 (peptide)
peptide: SVSEIQL[Nle]HNLGKHLNS[β3hI]ERVE[1Nal]LRKLLQSVHNF-NH2
B14: [Nle^8, β-hIle^18, 1-Nal^23, Leu^27, Lys^34] hPTH (1-34)-NH2 (peptide)
peptide: SVSEIQL[Nle]HNLGKHLNS[β3hI]ERVE[1Nal]LRKLLQDVHNK-NH2
B15: [Nle^8, β-Ala^17, hSer(OMe)^18, 1-Nal^23, Leu^27] hPTH (1-34)-NH2 (peptide)
peptide: SVSEIQL[Nle]HNLGKHLN[βAla][hSer(OMe)]ERVE[1Nal]LRKLLQDVHNF-NH2
B16: [Nle^8, β-hIle^18, 1-Nal^23, Leu^27] hPTH (1-34)-NH2 (peptide)
peptide: SVSEIQL[Nle]HNLGKHLNS[β3hI]ERVE[1Nal]LRKLLQDVHNF-NH2
B17: [Aib^1, Nle^8,18, β-Ala^17, 1-Nal^23, Leu^27] hPTH (1-34)-NH2 (peptide)
peptide: [Aib]VSEIQL[Nle]HNLGKHLN[βAla][Nle]ERVE[1Nal]LRKLLQDVHNF-NH2
B18: [Nle^8, β-hIle^18, 1-Nal^23, Leu^27, Glu^34] hPTH (1-34)-NH2 (peptide)
peptide: SVSEIQL[Nle]HNLGKHLNS[β3hI]ERVE[1Nal]LRKLLQDVHNE-NH2
B19: [Nle^8, β-hIle^18, 1-Nal^23, Leu^27, Lys^33] hPTH (1-34)-NH2 (peptide)
peptide: SVSEIQL[Nle]HNLGKHLNS[β3hI]ERVE[1Nal]LRKLLQDVHKF-NH2
B20: [Nle^8, Aib^12,13, β-hIle^18, 1-Nal^23, Leu^27] hPTH (1-34)-NH2 (peptide)
peptide: SVSEIQL[Nle]HNL[Aib][Aib]HLNS[β3hI]ERVE[1Nal]LRKLLQDVHNF-NH2
B21: [Aib^1, Nle^8,18, β-Ala^17, 2-Nal^23] hPTH (1-34)-NH2 (peptide)
peptide: [Aib]VSEIQL[Nle]HNLGKHLN[βAla][Nle]ERVE[2Nal]LRKKLQDVHNF-NH2
modifications: N-terminus assumed
SMILES: CCCC[C@H](NC(=O)CCNC(=O)[C@H](CC(N)=O)NC(=O)[C@H](CC(C)C)NC(=O)[C@H](Cc1c[nH]cn1)NC(=O)[C@H](CCCCN)NC(=O)CNC(=O)[C@H](CC(C)C)NC(=O)[C@H](CC(N)=O)NC(=O)[C@H](Cc1c[nH]cn1)NC(=O)[C@H](CCCC)NC(=O)[C@H](CC(C)C)NC(=O)[C@H](CCC(N)=O)NC(=O)[C@@H](NC(=O)[C@H](CCC(=O)O)NC(=O)[C@H](CO)NC(=O)[C@@H](NC(=O)C(C)(C)N)C(C)C)[C@@H](C)CC)C(=O)N[C@@H](CCC(=O)O)C(=O)N[C@@H](CCCNC(=N)N)C(=O)N[C@H](C(=O)N[C@@H](CCC(=O)O)C(=O)N[C@@H](Cc1ccc2ccccc2c1)C(=O)N[C@@H](CC(C)C)C(=O)N[C@@H](CCCNC(=N)N)C(=O)N[C@@H](CCCCN)C(=O)N[C@@H](CCCCN)C(=O)N[C@@H](CC(C)C)C(=O)N[C@@H](CCC(N)=O)C(=O)N[C@@H](CC(=O)O)C(=O)N[C@H](C(=O)N[C@@H](Cc1c[nH]cn1)C(=O)N[C@@H](CC(N)=O)C(=O)N[C@@H](Cc1ccccc1)C(N)=O)C(C)C)C(C)C
B22: [Nle^8, Aib^13, β-hIle^18, 1-Nal^23, Leu^27] hPTH (1-34)-NH2 (peptide)
peptide: SVSEIQLXHNLGXHLNSXERVEXLRKLLQDVHNF
modifications: Nle^8, Aib^13, β-hIle^18, 1-Nal^23, C-terminal NH2 (amide)
B23: [Nle^8,18, β-hGlu^19, 1-Nal^23, Leu^27] hPTH (1-34)-NH2 (peptide)
peptide: SVSEIQL[Nle]HNLGKHLNS[Nle][β3hE]RVE[1Nal]LRKLLQDVHNF-NH2
modifications: N-terminus assumed
SMILES: CCCC[C@H](NC(=O)[C@H](CO)NC(=O)[C@H](CC(N)=O)NC(=O)[C@H](CC(C)C)NC(=O)[C@H](Cc1c[nH]cn1)NC(=O)[C@H](CCCCN)NC(=O)CNC(=O)[C@H](CC(C)C)NC(=O)[C@H](CC(N)=O)NC(=O)[C@H](Cc1c[nH]cn1)NC(=O)[C@H](CCCC)NC(=O)[C@H](CC(C)C)NC(=O)[C@H](CCC(N)=O)NC(=O)[C@@H](NC(=O)[C@H](CCC(=O)O)NC(=O)[C@H](CO)NC(=O)[C@@H](NC(=O)[C@@H](N)CO)C(C)C)[C@@H](C)CC)C(=O)N[C@@H](CCC(=O)O)CC(=O)N[C@@H](CCCNC(=N)N)C(=O)N[C@H](C(=O)N[C@@H](CCC(=O)O)C(=O)N[C@@H](Cc1cccc2ccccc12)C(=O)N[C@@H](CC(C)C)C(=O)N[C@@H](CCCNC(=N)N)C(=O)N[C@@H](CCCCN)C(=O)N[C@@H](CC(C)C)C(=O)N[C@@H](CC(C)C)C(=O)N[C@@H](CCC(N)=O)C(=O)N[C@@H](CC(=O)O)C(=O)N[C@H](C(=O)N[C@@H](Cc1c[nH]cn1)C(=O)N[C@@H](CC(N)=O)C(=O)N[C@@H](Cc1ccccc1)C(N)=O)C(C)C)C(C)C
B24: [Nle^8, Ser^10, β-hIle^18, 1-Nal^23, Leu^27] hPTH (1-34)-NH2 (peptide)
peptide: SVSEIQL[Nle]HSLGKHLNS[β3hI]ERVE[1Nal]LRKLLQDVHNF-NH2

Assays:
[1] = molecular target: human parathyroid hormone receptor 1 (human, UniProt Q03431); test: cell-based or functional assay
[2] = molecular target: human parathyroid hormone receptor 2 (human, UniProt P49190); test: cell-based or functional assay

Binder	hPTHR-1 EC50 (nM), CRE-luciferase reporter gene assay [1]	hPTHR-2 EC50 (nM), luciferase reporter gene assay [2]
B1	0.12 nM	41 nM
B2	0.88 nM	> 270 nM
B3	0.06 nM	49 nM
B4	0.13 nM	3 nM
B5	0.22 nM	61 nM
B6	0.23 nM	13 nM
B7	0.12 nM	47 nM
B8	0.18 nM	13 nM
B9	0.19 nM	20 nM
B10	0.22 nM	95 nM
B11	0.2 nM	89 nM
B12	0.16 nM	37 nM
B13	0.19 nM	19 nM
B14	0.1 nM	17 nM
B15	0.13 nM	93 nM
B16	0.14 nM	32 nM
B17	0.06 nM	31 nM
B18	0.12 nM	57 nM
B19	0.15 nM	32 nM
B20	0.25 nM	34 nM
B21	0.22 nM	46 nM
B22	0.14 nM	68 nM
B23	0.32 nM	29 nM
B24	0.18 nM	17 nM
